Source: the Human Domainome abundance scans (Beltran et al. 2025)
± gives the uncertainty stated by the source.

B1: Zinc finger MYM-type protein 6, residues 427 to 504; numbered along this chain, O95789 (parent)
chain: KLKCQHCNHLFATKPELLFYKGKMFLFCGKNCSDEYKKKNKVVAMCDYCKLQKIIKETVRFSGVDKPFCSEVCKFLSA

Variants of: B1
Experiment: abundance fitness (aPCA) (normalised: wild type 0, dead -1); higher = more abundant; growth selection in yeast, the domain comes from the species named
Conditions: Homo sapiens

Variant | abundance fitness
KLKCQHCNHLFATKPELLFYKGKMFLFCGKWCSDEYKKKNKVVAMCDYCKLQKIIKETVRFSGVDKPFCSEVCKFLSA [N31W] | -0.054 ± 0.037
KLKCQHCNHLFATKPELLFYKGKMFLFCGKHCSDEYKKKNKVVAMCDYCKLQKIIKETVRFSGVDKPFCSEVCKFLSA [N31H] | 0.062 ± 0.19
KLKCQHCNHLFATKPELLFYKGKMFLFCGKGCSDEYKKKNKVVAMCDYCKLQKIIKETVRFSGVDKPFCSEVCKFLSA [N31G] | -0.026 ± 0.029
KLKCQHCNHLFATKPELLFYKGKMFLFCGKCCSDEYKKKNKVVAMCDYCKLQKIIKETVRFSGVDKPFCSEVCKFLSA [N31C] | -0.1 ± 0.047
KLKCQHCNHLFATKPELLFYKGKMFLFCGKACSDEYKKKNKVVAMCDYCKLQKIIKETVRFSGVDKPFCSEVCKFLSA [N31A] | -0.078 ± 0.03
KLKCQHCNHLFATKPELLFYKGKMFLFCGKECSDEYKKKNKVVAMCDYCKLQKIIKETVRFSGVDKPFCSEVCKFLSA [N31E] | -0.058 ± 0.039
KLKCQHCNHLFATKPELLFYKGKMFLFCGKVCSDEYKKKNKVVAMCDYCKLQKIIKETVRFSGVDKPFCSEVCKFLSA [N31V] | -0.077 ± 0.031
KLKCQHCNHLFATKPELLFYKGKMFLFCGKPCSDEYKKKNKVVAMCDYCKLQKIIKETVRFSGVDKPFCSEVCKFLSA [N31P] | -0.018 ± 0.041
KLKCQHCNHLFATKPELLFYKGKMFLFCGKQCSDEYKKKNKVVAMCDYCKLQKIIKETVRFSGVDKPFCSEVCKFLSA [N31Q] | -0.036 ± 0.035
KLKCQHCNHLFATKPELLFYKGKMFLFCGKLCSDEYKKKNKVVAMCDYCKLQKIIKETVRFSGVDKPFCSEVCKFLSA [N31L] | -0.067 ± 0.035
KLKCQHCNHLFATKPELLFYKGKMFLFCGKSCSDEYKKKNKVVAMCDYCKLQKIIKETVRFSGVDKPFCSEVCKFLSA [N31S] | -0.042 ± 0.034
KLKCQHCNHLFATKPELLFYKGKMFLFCGKFCSDEYKKKNKVVAMCDYCKLQKIIKETVRFSGVDKPFCSEVCKFLSA [N31F] | -0.229 ± 0.07
KLKCQHCNHLFATKPELLFYKGKMFLFCGKRCSDEYKKKNKVVAMCDYCKLQKIIKETVRFSGVDKPFCSEVCKFLSA [N31R] | 0.012 ± 0.029
KLKCQHCNHLFATKPELLFYKGKMFLFCGKYCSDEYKKKNKVVAMCDYCKLQKIIKETVRFSGVDKPFCSEVCKFLSA [N31Y] | -0.134 ± 0.24
KLKCQHCNHLFATKPELLFYKGKMFLFCGKNCSDCYKKKNKVVAMCDYCKLQKIIKETVRFSGVDKPFCSEVCKFLSA [E35C] | -0.402 ± 0.46
KLKCQHCNHLFATKPELLFYKGKMFLFCGKNCSDTYKKKNKVVAMCDYCKLQKIIKETVRFSGVDKPFCSEVCKFLSA [E35T] | -0.127 ± 0.092
KLKCQHCNHLFATKPELLFYKGKMFLFCGKNCSDWYKKKNKVVAMCDYCKLQKIIKETVRFSGVDKPFCSEVCKFLSA [E35W] | -0.11 ± 0.038
KLKCQHCNHLFATKPELLFYKGKMFLFCGKNCSDYYKKKNKVVAMCDYCKLQKIIKETVRFSGVDKPFCSEVCKFLSA [E35Y] | -0.108 ± 0.098
KLKCQHCNHLFATKPELLFYKGKMFLFCGKNCSDGYKKKNKVVAMCDYCKLQKIIKETVRFSGVDKPFCSEVCKFLSA [E35G] | -0.007 ± 0.028
KLKCQHCNHLFATKPELLFYKGKMFLFCGKNCSDAYKKKNKVVAMCDYCKLQKIIKETVRFSGVDKPFCSEVCKFLSA [E35A] | -0.024 ± 0.029
KLKCQHCNHLFATKPELLFYKGKMFLFCGKNCSDDYKKKNKVVAMCDYCKLQKIIKETVRFSGVDKPFCSEVCKFLSA [E35D] | -0.047 ± 0.064
KLKCQHCNHLFATKPELLFYKGKMFLFCGKNCSDQYKKKNKVVAMCDYCKLQKIIKETVRFSGVDKPFCSEVCKFLSA [E35Q] | -0.082 ± 0.06
KLKCQHCNHLFATKPELLFYKGKMFLFCGKNCSDPYKKKNKVVAMCDYCKLQKIIKETVRFSGVDKPFCSEVCKFLSA [E35P] | -0.331 ± 0.051
KLKCQHCNHLFATKPELLFYKGKMFLFCGKNCSDVYKKKNKVVAMCDYCKLQKIIKETVRFSGVDKPFCSEVCKFLSA [E35V] | -0.07 ± 0.035

Variant | abundance fitness
KLKCQHCNHLFATKPELLFYKGKMFLFCGKNCSDRYKKKNKVVAMCDYCKLQKIIKETVRFSGVDKPFCSEVCKFLSA [E35R] | -0.021 ± 0.03
KLKCQHCNHLFATKPELLFYKGKMFLFCGKNCSDLYKKKNKVVAMCDYCKLQKIIKETVRFSGVDKPFCSEVCKFLSA [E35L] | -0.096 ± 0.042
KLKCQHCNHLFATKPELLFYKGKMFLFCGKNCSDMYKKKNKVVAMCDYCKLQKIIKETVRFSGVDKPFCSEVCKFLSA [E35M] | -0.054 ± 0.033
KLKCQHCNHLFATKPELLFYKGKMFLFCGTNCSDEYKKKNKVVAMCDYCKLQKIIKETVRFSGVDKPFCSEVCKFLSA [K30T] | -0.123 ± 0.046
KLKCQHCNHLFATKPELLFYKGKMFLFCGYNCSDEYKKKNKVVAMCDYCKLQKIIKETVRFSGVDKPFCSEVCKFLSA [K30Y] | -0.028 ± 0.092
KLKCQHCNHLFATKPELLFYKGKMFLFCGWNCSDEYKKKNKVVAMCDYCKLQKIIKETVRFSGVDKPFCSEVCKFLSA [K30W] | -0.146 ± 0.035
KLKCQHCNHLFATKPELLFYKGKMFLFCGKNCYDEYKKKNKVVAMCDYCKLQKIIKETVRFSGVDKPFCSEVCKFLSA [S33Y] | -0.14 ± 0.4
KLKCQHCNHLFATKPELLFYKGKMFLFCGKNCEDEYKKKNKVVAMCDYCKLQKIIKETVRFSGVDKPFCSEVCKFLSA [S33E] | -0.025 ± 0.039
KLKCQHCNHLFATKPELLFYKGKMFLFCGKNCGDEYKKKNKVVAMCDYCKLQKIIKETVRFSGVDKPFCSEVCKFLSA [S33G] | -0.141 ± 0.027
KLKCQHCNHLFATKPELLFYKGKMFLFCGKNCQDEYKKKNKVVAMCDYCKLQKIIKETVRFSGVDKPFCSEVCKFLSA [S33Q] | 0.017 ± 0.053
KLKCQHCNHLFATKPELLFYKGKMFLFCGKNCDDEYKKKNKVVAMCDYCKLQKIIKETVRFSGVDKPFCSEVCKFLSA [S33D] | -0.217 ± 0.049
KLKCQHCNHLFATKPELLFYKGKMFLFCGKNCHDEYKKKNKVVAMCDYCKLQKIIKETVRFSGVDKPFCSEVCKFLSA [S33H] | -0.192 ± 0.081
KLKCQHCNHLFATKPELLFYKGKMFLFCGKNCADEYKKKNKVVAMCDYCKLQKIIKETVRFSGVDKPFCSEVCKFLSA [S33A] | -0.032 ± 0.031
KLKCQHCNHLFATKPELLFYKGKMFLFCGKNCRDEYKKKNKVVAMCDYCKLQKIIKETVRFSGVDKPFCSEVCKFLSA [S33R] | -0.061 ± 0.03
KLKCQHCNHLFATKPELLFYKGKMFLFCGKNCPDEYKKKNKVVAMCDYCKLQKIIKETVRFSGVDKPFCSEVCKFLSA [S33P] | -0.343 ± 0.045
KLKCQHCNHLFATKPELLFYKGKMFLFCGKNCFDEYKKKNKVVAMCDYCKLQKIIKETVRFSGVDKPFCSEVCKFLSA [S33F] | -0.289 ± 0.12
KLKCQHCNHLFATKPELLFYKGKMFLFCGKNCWDEYKKKNKVVAMCDYCKLQKIIKETVRFSGVDKPFCSEVCKFLSA [S33W] | -0.114 ± 0.043
KLKCQHCNHLFATKPELLFYKGKMFLFCGKNCCDEYKKKNKVVAMCDYCKLQKIIKETVRFSGVDKPFCSEVCKFLSA [S33C] | -0.077 ± 0.05
KLKCQHCNHLFATKPELLFYKGKMFLFCGKNCVDEYKKKNKVVAMCDYCKLQKIIKETVRFSGVDKPFCSEVCKFLSA [S33V] | -0.054 ± 0.03
KLKCQHCNHLFATKPELLFYKGKMFLFCGKNCLDEYKKKNKVVAMCDYCKLQKIIKETVRFSGVDKPFCSEVCKFLSA [S33L] | -0.089 ± 0.05
KLKCQHCNHLFATKPELLFYKGKMFLFCGKNCMDEYKKKNKVVAMCDYCKLQKIIKETVRFSGVDKPFCSEVCKFLSA [S33M] | -0.042 ± 0.037
KLKCQHCNHLFATKPELLFYKGKMFLFCGKNCTDEYKKKNKVVAMCDYCKLQKIIKETVRFSGVDKPFCSEVCKFLSA [S33T] | -0.127 ± 0.056
KLKCQHCNHLFATKPELLFYKGKMFLFCGKNPSDEYKKKNKVVAMCDYCKLQKIIKETVRFSGVDKPFCSEVCKFLSA [C32P] | -1.05 ± 0.14
KLKCQHCNHLFATKPELLFYKGKMFLFCGKNWSDEYKKKNKVVAMCDYCKLQKIIKETVRFSGVDKPFCSEVCKFLSA [C32W] | -0.861 ± 0.088

Variant | abundance fitness
KLKCQHCNHLFATKPELLFYKGKMFLFCGKNQSDEYKKKNKVVAMCDYCKLQKIIKETVRFSGVDKPFCSEVCKFLSA [C32Q] | -0.944 ± 0.35
KLKCQHCNHLFATKPELLFYKGKMFLFCGKNSSDEYKKKNKVVAMCDYCKLQKIIKETVRFSGVDKPFCSEVCKFLSA [C32S] | -1.01 ± 0.2
KLKCQHCNHLFATKPELLFYKGKMFLFCGKNLSDEYKKKNKVVAMCDYCKLQKIIKETVRFSGVDKPFCSEVCKFLSA [C32L] | -1.05 ± 0.22
KLKCQHCNHLFATKPELLFYKGKMFLFCGKNDSDEYKKKNKVVAMCDYCKLQKIIKETVRFSGVDKPFCSEVCKFLSA [C32D] | -0.607 ± 0.074
KLKCQHCNHLFATKPELLFYKGKMFLFCGKNVSDEYKKKNKVVAMCDYCKLQKIIKETVRFSGVDKPFCSEVCKFLSA [C32V] | -0.919 ± 0.1
KLKCQHCNHLFATKPELLFYKGKMFLFCGKNGSDEYKKKNKVVAMCDYCKLQKIIKETVRFSGVDKPFCSEVCKFLSA [C32G] | -1.02 ± 0.069
KLKCQHCNHLFATKPELLFYKGKMFLFCGKNTSDEYKKKNKVVAMCDYCKLQKIIKETVRFSGVDKPFCSEVCKFLSA [C32T] | -1.29 ± 0.23
KLKCQHCNHLFATKPELLFYKGKMFLFCGKNESDEYKKKNKVVAMCDYCKLQKIIKETVRFSGVDKPFCSEVCKFLSA [C32E] | -1.01 ± 0.096
KLKCQHCNHLFATKPELLFYKGKMFLFCGKNCSDEAKKKNKVVAMCDYCKLQKIIKETVRFSGVDKPFCSEVCKFLSA [Y36A] | -0.074 ± 0.03
KLKCQHCNHLFATKPELLFYKGKMFLFCGKNCSQEYKKKNKVVAMCDYCKLQKIIKETVRFSGVDKPFCSEVCKFLSA [D34Q] | -0.034 ± 0.048
KLKCQHCNHLFATKPELLFYKGKMFLFCGKNCSSEYKKKNKVVAMCDYCKLQKIIKETVRFSGVDKPFCSEVCKFLSA [D34S] | -0.056 ± 0.041
KLKCQHCNHLFATKPELLFYKGKMFLFCGKNCSGEYKKKNKVVAMCDYCKLQKIIKETVRFSGVDKPFCSEVCKFLSA [D34G] | -0.078 ± 0.029
KLKCQHCNHLFATKPELLFYKGKMFLFCGKNCSAEYKKKNKVVAMCDYCKLQKIIKETVRFSGVDKPFCSEVCKFLSA [D34A] | -0.037 ± 0.029
KLKCQHCNHLFATKPELLFYKGKMFLFCGKNCSTEYKKKNKVVAMCDYCKLQKIIKETVRFSGVDKPFCSEVCKFLSA [D34T] | -0.133 ± 0.079
KLKCQHCNHLFATKPELLFYKGKMFLFCGKNCSPEYKKKNKVVAMCDYCKLQKIIKETVRFSGVDKPFCSEVCKFLSA [D34P] | -0.691 ± 0.084
KLKCQHCNHLFATKPELLFYKGKMFLFCGKNCSLEYKKKNKVVAMCDYCKLQKIIKETVRFSGVDKPFCSEVCKFLSA [D34L] | -0.14 ± 0.038
KLKCQHCNHLFATKPELLFYKGKMFLFCGKNCSMEYKKKNKVVAMCDYCKLQKIIKETVRFSGVDKPFCSEVCKFLSA [D34M] | -0.091 ± 0.055
KLKCQHCNHLFATKPELLFYKGKMFLFCGKNCSWEYKKKNKVVAMCDYCKLQKIIKETVRFSGVDKPFCSEVCKFLSA [D34W] | -0.156 ± 0.035
KLKCQHCNHLFATKPELLFYKGKMFLFCGKNCSREYKKKNKVVAMCDYCKLQKIIKETVRFSGVDKPFCSEVCKFLSA [D34R] | -0.068 ± 0.032
KLKCQHCNHLFATKPELLFYKGKMFLFCGKNCSNEYKKKNKVVAMCDYCKLQKIIKETVRFSGVDKPFCSEVCKFLSA [D34N] | -0.527 ± 0.28
KLKCQHCNHLFATKPELLFYKGKMFLFCGKNCSEEYKKKNKVVAMCDYCKLQKIIKETVRFSGVDKPFCSEVCKFLSA [D34E] | -0.033 ± 0.036
KLKCQHCNHLFATKPELLFYKGKMFLFCGKNCSVEYKKKNKVVAMCDYCKLQKIIKETVRFSGVDKPFCSEVCKFLSA [D34V] | -0.017 ± 0.032
